In general, Km refers to the substrate concentration at which the rate is half of its maximum.

Substrate in the data set: COc1cc(S(=O)(=O)O)c(C)cc1N=Nc1c(O)ccc2cc(S(=O)(=O)O)ccc12
Description: purified protein. The settings on record: 2,000 µM NADH, 20 µM FMN, 20 mM sodium phosphate buffer, 37°C, aerobic.

B1: AzoR (Escherichia coli K-12) (protein)
chain: SKVLVLKSSILAGYSQSNQLSDYFVEQWREKHSADEITVRDLAANPIPVLDGELVGALRPSDAPLTPRQQEALALSDELIAELKAHDVIVIAAPMYNFNISTQLKNYFDLVARAGVTFRYTENGPEGLVTGKKAIVITSRGGIHKDGPTDLVTPYLSTFLGFIGITDVKFVFAEGIAYGPEMAAKAQSDAKAAIDSIVSA
For B1, the Km amounted to 67.7 µM.

Source of the values: PMC10653809.
